Results taken from publication PMC2586147.

Target: K401-BIO-H6 R210K (Drosophila) (UniProt P17210)
Assay: AUC

stoichiometry N	Substance
2	K401 (from UniProt P17210 1-401) (domain or fragment)
2	K401-BIO-H6 R210K (from UniProt P17210 1-401) (domain or fragment)
